From publication PMC5589656, “Disruption of DNA repair in cancer cells by ubiquitination of a destabilising dimerization domain of nucleotide excision repair protein ERCC1” (Oncotarget, 2017)

Biological target: the molecule itself
Assay: semi-native western blot (SDS PAGE gel, non-boiled and non-reduced samples); input samples of ERCC1-transfected A375 cells, blotted with anti-ERCC1 antibody; with or without 25 uM cisplatin for 5 h

B1: ERCC1 (1-297), full-length wild-type human ERCC1, Myc-tagged and Flag-tagged copies (natural protein, UniProt P07992 1-297, looked up)
chain: MDPGKDKEGVPQPSGPPARKKFVIPLDEDEVPPGVAKPLFRSTQSLPTVDTSAQAAPQTYAEYAISQPLEGAGATCPTGSEPLAGETPNQALKPGAKSNSIIVSPRQRGNPVLKFVRNVPWEFGDVIPDYVLGQSTCALFLSLRYHNLHPDYIHGRLQSLGKNFALRVLLVQVDVKDPQQALKELAKMCILADCTLILAWSPEEAGRYLETYKAYEQKPADLLMEKLEQDFVSRVTECLTTVKSVNKTDSQTLLTTFGSLEQLIAASREDLALCPGLGPQKARRLFDVLHEPFLKVP
notes: ERCC1, human, full length, residues 1-297 (297 amino acid protein); Self-association was tested with two differently tagged copies; Each copy carries only one of the two tags: the Myc-tagged copy was precipitated and the Flag-tagged copy was detected; The Myc copy is in pcDNA3.1(-)/myc-His A, which as far as I recall adds a C-terminal myc-His; Construct details are in the Supplementary …
With B1 the “stoichiometry N” value was 2.
